One block for each binder: values may come before it.
How the values were obtained:
Experiment in all cases: two-hybrid library CCNG1;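 also: natural log of median RNA to DNA barcode read ratio; higher means stronger binding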
4H1804-bN = target: T1, 4H1804-bN
T1 chain: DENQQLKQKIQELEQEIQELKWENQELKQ

4H1449-bN = target: T2, 4H1449-bN
T2 chain: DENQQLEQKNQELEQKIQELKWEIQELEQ

4H570-bN = target: T3, 4H570-bN
T3 chain: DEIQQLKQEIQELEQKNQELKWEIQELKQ

4H3817-bA = target: T4, 4H3817-bA
T4 chain: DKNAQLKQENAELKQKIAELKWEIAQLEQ

4H3974-bN = target: T5, 4H3974-bN
T5 chain: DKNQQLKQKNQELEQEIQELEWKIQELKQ

4H3817-bN = target: T6, 4H3817-bN
T6 chain: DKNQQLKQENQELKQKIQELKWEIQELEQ

4H1359-bN = target: T7, 4H1359-bN
T7 chain: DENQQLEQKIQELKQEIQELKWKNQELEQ

4H1338-bN = target: T8, 4H1338-bN
T8 chain: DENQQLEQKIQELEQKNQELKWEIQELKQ

4H363-bN = target: T9, 4H363-bN
T9 chain: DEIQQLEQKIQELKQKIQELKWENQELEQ

4H3638-bN = target: T10, 4H3638-bN
T10 chain: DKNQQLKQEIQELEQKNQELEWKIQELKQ

4H3172-bN = target: T11, 4H3172-bN
T11 chain: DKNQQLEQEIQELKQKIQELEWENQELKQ

4H850-bN = target: T12, 4H850-bN
T12 chain: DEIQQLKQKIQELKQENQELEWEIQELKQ

4H906-bN = target: T13, 4H906-bN
T13 chain: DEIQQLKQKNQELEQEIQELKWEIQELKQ

4H1222-bN = target: T14, 4H1222-bN
T14 chain: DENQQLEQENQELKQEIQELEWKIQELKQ

4H3926-bN = target: T15, 4H3926-bN
T15 chain: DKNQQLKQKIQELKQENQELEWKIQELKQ

4H3414-bN = target: T16, 4H3414-bN
T16 chain: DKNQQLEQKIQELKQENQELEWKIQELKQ

4H3129-bN = target: T17, 4H3129-bN
T17 chain: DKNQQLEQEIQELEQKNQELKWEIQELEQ

4H3613-bN = target: T18, 4H3613-bN
T18 chain: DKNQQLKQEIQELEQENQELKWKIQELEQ

4H1544-bN = target: T19, 4H1544-bN
T19 chain: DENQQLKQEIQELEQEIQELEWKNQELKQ

4H1393-bN = target: T20, 4H1393-bN
T20 chain: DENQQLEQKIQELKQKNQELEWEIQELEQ

4H3631-bN = target: T21, 4H3631-bN
T21 chain: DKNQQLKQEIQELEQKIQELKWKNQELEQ

4H1985-bN = target: T22, 4H1985-bN
T22 chain: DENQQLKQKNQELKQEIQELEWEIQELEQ

4H1899-bN = target: T23, 4H1899-bN
T23 chain: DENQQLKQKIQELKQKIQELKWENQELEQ

4H3858-bN = target: T24, 4H3858-bN
T24 chain: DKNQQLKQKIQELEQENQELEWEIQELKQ

4H619-bN = target: T25, 4H619-bN
T25 chain: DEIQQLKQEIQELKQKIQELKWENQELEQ

4H1629-bN = target: T26, 4H1629-bN
T26 chain: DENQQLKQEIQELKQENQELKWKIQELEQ

4H1373-bN = target: T27, 4H1373-bN
T27 chain: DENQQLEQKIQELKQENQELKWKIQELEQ

4H584-bN = target: T28, 4H584-bN
T28 chain: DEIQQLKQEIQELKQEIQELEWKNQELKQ

4H1710-bN = target: T29, 4H1710-bN
T29 chain: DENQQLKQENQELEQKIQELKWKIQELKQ

O9-bH = target: T30, O9-bH
T30 chain: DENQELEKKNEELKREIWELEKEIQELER

4H1348-bN = target: T31, 4H1348-bN
T31 chain: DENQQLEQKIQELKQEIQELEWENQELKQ

4H3628-bN = target: T32, 4H3628-bN
T32 chain: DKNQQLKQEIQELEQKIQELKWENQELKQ

4H2585-bN = target: T33, 4H2585-bN
T33 chain: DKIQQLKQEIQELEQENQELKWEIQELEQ

4H56-bN = target: T34, 4H56-bN
T34 chain: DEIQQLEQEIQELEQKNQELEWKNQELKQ

4H2162-bN = target: T35, 4H2162-bN
T35 chain: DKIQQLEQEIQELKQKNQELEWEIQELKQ

4H235-bN = target: T36, 4H235-bN
T36 chain: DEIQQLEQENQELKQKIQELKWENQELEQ

4H932-bN = target: T37, 4H932-bN
T37 chain: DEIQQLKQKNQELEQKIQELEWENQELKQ

4H264-bN = target: T38, 4H264-bN
T38 chain: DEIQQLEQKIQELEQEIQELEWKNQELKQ

4H796-bN = target: T39, 4H796-bN
T39 chain: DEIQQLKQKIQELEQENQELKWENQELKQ

4H166-bN = target: T40, 4H166-bN
T40 chain: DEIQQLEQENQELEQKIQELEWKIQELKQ

4H2143-bN = target: T41, 4H2143-bN
T41 chain: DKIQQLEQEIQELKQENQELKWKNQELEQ

4H2253-bN = target: T42, 4H2253-bN
T42 chain: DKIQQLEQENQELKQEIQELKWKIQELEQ

4H3381-bN = target: T43, 4H3381-bN
T43 chain: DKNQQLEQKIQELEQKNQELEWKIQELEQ

4H2444-bN = target: T44, 4H2444-bN
T44 chain: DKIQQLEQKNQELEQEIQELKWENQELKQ

4H349-bN = target: T45, 4H349-bN
T45 chain: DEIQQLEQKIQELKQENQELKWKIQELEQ

4H2859-bN = target: T46, 4H2859-bN
T46 chain: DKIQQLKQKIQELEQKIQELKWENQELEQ

4H730-bN = target: T47, 4H730-bN
T47 chain: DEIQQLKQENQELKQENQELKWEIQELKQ

4H3041-bN = target: T48, 4H3041-bN
T48 chain: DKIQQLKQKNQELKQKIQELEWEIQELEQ

4H2931-bN = target: T49, 4H2931-bN
T49 chain: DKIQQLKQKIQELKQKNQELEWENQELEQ

4H2233-bN = target: T50, 4H2233-bN
T50 chain: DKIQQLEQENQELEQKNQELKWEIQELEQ

4H2518-bN = target: T51, 4H2518-bN
T51 chain: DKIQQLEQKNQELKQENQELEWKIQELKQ

4H949-bN = target: T52, 4H949-bN
T52 chain: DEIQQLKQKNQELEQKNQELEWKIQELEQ

4H3297-bN = target: T53, 4H3297-bN
T53 chain: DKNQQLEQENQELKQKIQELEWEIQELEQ

4H3364-bN = target: T54, 4H3364-bN
T54 chain: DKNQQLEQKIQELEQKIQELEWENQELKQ

4H2760-bN = target: T55, 4H2760-bN
T55 chain: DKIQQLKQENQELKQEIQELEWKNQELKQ

- interaction score (4H1804-bN): 0.407
- interaction score (4H1449-bN): -0.277
- interaction score (4H570-bN): -0.0662
- interaction score (4H3817-bA): 1.4
- interaction score (4H3974-bN): -0.957
- interaction score (4H3817-bN): 2.15
- interaction score (4H1359-bN): 0.554
- interaction score (4H1338-bN): 0.344
- interaction score (4H363-bN): -0.189
- interaction score (4H3638-bN): 0.921
- interaction score (4H3172-bN): -0.0903
- interaction score (4H850-bN): 0.741
- interaction score (4H906-bN): -1.3
- interaction score (4H1222-bN): -1.63
- interaction score (4H3926-bN): 0.755
- interaction score (4H3414-bN): 0.105
- interaction score (4H3129-bN): -0.201
- interaction score (4H3613-bN): 0.482
- interaction score (4H1544-bN): -1.38
- interaction score (4H1393-bN): -0.718
- interaction score (4H3631-bN): 0.357
- interaction score (4H1985-bN): -2.04
- interaction score (4H1899-bN): -0.657
- interaction score (4H3858-bN): -0.767
- interaction score (4H619-bN): -0.785
- interaction score (4H1629-bN): 0.612
- interaction score (4H1373-bN): -0.0597
- interaction score (4H584-bN): -0.959
- interaction score (4H1710-bN): 0.715
- interaction score (O9-bH): 1.11
- interaction score (4H1348-bN): -2.2
- interaction score (4H3628-bN): -0.764
Binder: DENQQLEQENQELKQEIQELEWKIQELKQ [4H1222-bN]

- interaction score (4H2585-bN): -0.823
- interaction score (4H56-bN): -0.199
- interaction score (4H2162-bN): 0.326
- interaction score (4H235-bN): -0.365
- interaction score (4H932-bN): -0.134
- interaction score (4H264-bN): 0.717
- interaction score (4H796-bN): -1.95
- interaction score (4H166-bN): 0.12
- interaction score (4H2143-bN): 0.201
- interaction score (4H2253-bN): -0.769
- interaction score (4H3381-bN): 0.0552
- interaction score (4H2444-bN): 0.231
- interaction score (4H349-bN): -0.759
- interaction score (4H2859-bN): 0.54
- interaction score (4H730-bN): -0.71
- interaction score (4H3041-bN): 1.6
- interaction score (4H2931-bN): -0.274
- interaction score (4H2233-bN): 0.155
- interaction score (4H2518-bN): 1.34
- interaction score (4H949-bN): -0.601
- interaction score (4H3297-bN): 1.54
- interaction score (4H3364-bN): -0.154
- interaction score (4H2760-bN): 0.225
Binder: DEIQQLEQENQELEQKIQELEWKIQELKQ [4H166-bN]
